According to patent publication US20150139999A1 (RUTGERS THE STATE UNIVERSITY OF NEW JERSEY, published 2015):

Molecular target: T1, B18-FL (Vaccinia virus strain Western Reserve B18 protein with a FLAG epitope at the C terminus, sec (Vaccinia virus strain Western Reserve, UniProt P25213 20-351))
T1 construct: mature
Test: covalent crosslinking in solution, SDS-PAGE

B1: [^32P]-His-Strep-IFN-λ1-P (secreted human IFN-λ1 with N-terminal His-Strep tag and C-terminal phosphorylation site) (ligand)
chain: HHHHHHPDHWSHPQFEKGPVPTSKPTTTGKGCHIGRFKSLSPQELASFKKARDALEESLKLKNWSCSSPVFPGNWDLRLLQVRERPVALEAELALTLKVLEAAAGPALEDVLDQPLHTLHHILSQLQACIQPQPTAGPRPRGRLHHWLHRLQEAPKKESAGCLEASVTFNLFRLLTRDLKYVADGNLCLRTSTHPESTRRASVA
notes: mature; also called His-Strep-IFN-λ1J-P
binding result: no binding
